Consider six proteins from the PETadex activity labels (doi:10.1016/j.bbalip.2005.11.003).

B1: unnamed (protein)
chain: MAKKDEHLRKPEWLKIKLNTNENYTGLKKLMRENNLHTVCEEAKCPNIHECWAVRRTATFMILGSVCTRACRFCAVKTGLPTELDLQEPERVADSVALMNLKHAVITAVARDDQKDGGAGIFAETVRAIRRKSPFTTIEVLPSDMGGNYDNLKTLMDTRPDILNHNIETVRRLTPRVRARATYDRSLEFLRRAKEMQPDIPTKSSIMIGLGETKEEIIEVMDDLLANNVDIMAIGQYLQPTKKHLKVQKYYHPDEFAELKEIAMQKGFSHCEAGPLVRSSYHADEQVNEASKKRQAQA
B2: unnamed (protein)
chain: MEPGSKSVSRSDWQPEPHQRPITPLEPGPEKTPIAQPESKTLQGSNTQQKPASNQRPLTQQETPAQHDAESQKEPRAQQKSASQEEFLAPQKPAPQQSPYIQRVLLTQQEAASQQGPGLGKESITQQEPALRQRHVAQPGPGPGEPPPAQQEAESTPAAQAKPGAKREPSAPTESTSQETPEQSDKQTTPVQGAKSKQGSLTELGFLTKLQELSIQRSALEWKALSEWVTDSESESDVGSSSDTDSPATMGGMVAQGVKLGFKGKSGYKVMSGYSGTSPHEKTSARNHRHYQDTASRLIHNMDLRTMTQSLVTLAEDNIAFFSSQGPGETAQRLSGVFAGVREQALGLEPALGRLLGVAHLFDLDPETPANGYRSLVHTARCCLAHLLHKSRYVASNRRSIFFRTSHNLAELEAYLAALTQLRALVYYAQRLLVTNRPGVLFFEGDEGLTADFLREYVTLHKGCFYGRCLGFQFTPAIRPFLQTISIGLVSFGEHYKRNETGLSVAASSLFTSGRFAIDPELRGAEFERITQNLDVHFWKAFWNITEMEVLSSLANMASATVRVSRLLSLPPEAFEMPLTADPTLTVTISPPLAHTGPGPVLVRLISYDLREGQDSEELSSLIKSNGQRSLELWPRPQQAPRSRSLIVHFHGGGFVAQTSRSHEPYLKSWAQELGAPIISIDYSLAPEAPFPRALEECFFAYCWAIKHCALLGSTGERICLAGDSAGGNLCFTVALRAAAYGVRVPDGIMAAYPATMLQPAASPSRLLSLMDPLLPLSVLSKCVSAYAGAKTEDHSNSDQKALGMMGLVRRDTALLLRDFRLGASSWLNSFLELSGRKSQKMSEPIAEPMRRSVSEAALAQPQGPLGTDSLKNLTLRDLSLRGNSETSSDTPEMSLSAETLSPSTPSDVNFLLPPEDAGEEAEAKNELSPMDRGLGVRAAFPEGFHPRRSSQGATQMPLYSSPIVKNPFMSPLLAPDSMLKSLPPVHIVACALDPMLDDSVMLARRLRNLGQPVTLRVVEDLPHGFLTLAALCRETRQAAELCVERIRLVLTPPAGAGPSGETGAAGVDGGCGGRH
B3: unnamed (protein)
chain: MRSSLVLFFVSAWTALASPIRREVSQDLFNQFNLFAQYSAAAYCGKNNDAPAGTNITCTGNACPEVEKADATFLYSFEDSGVGDVTGFLALDNTNKLIVLSFRGSRSIENWIGNLNFDLKEINDICSGCRGHDGFTSSWRSVADTLRQKVEDAVREHPDYRVVFTGHSLGGALATVAGADLRGNGYDIDVFSYGAPRVGNRAFAEFLTVQTGGTLYRITHTNDIVPRLPPREFGYSHSSPEYWIKSGTLVPVTRNDIVKIEGIDATGGNNQPNIPDIPAHLWYFGLIGTCL
B4: unnamed (protein)
chain: MVLKQRANYLGFLIVFFTAFLVEAVPIKRQSNSTVDSLPPLIPSRTSAPSSSPSTTDPEAPAMSRNGPLPSDVETKYGMALNATSYPDSVVQAMSIDGGIRAATSQEINELTYYTTLSANSYCRTVIPGATWDCIHCDATEDLKIIKTWSTLIYDTNAMVARGDSEKTIYIVFRGSSSIRNWIADLTFVPVSYPPVSGTKVHKGFLDSYGEVQNELVATVLDQFKQYPSYKVAVTGHSLGGATALLCALDLYQREEGLSSSNLFLYTQGQPRVGDPAFANYVVSTGIPYRRTVNERDIVPHLPPAAFGFLHAGEEYWITDNSPETVQVCTSDLETSDCSNSIVPFTSVLDHLSYFGINTGLCT
B5: unnamed (protein)
chain: AEVCYSHLGCFSDEKPWAGTSQRPIKSLPSDPKKINTRFLLYTNENQNSYQLITATDIATIKASNFNLNRKTRFIIHGFTDSGENSWLSDMCKNMFQVEKVNCICVDWKGGSKAQYSQASQNIRVVGAEVAYLVQVLSTSLNYAPENVHIIGHSLGAHTAGEAGKRLNGLVGRITGLDPAEPYFQDTPEEVRLDPSDAKFVDVIHTDISPILPSLGFGMSQKVGHMDFFPNGGKDMPGCKTGISCNHHRSIEYYHSSILNPEGFLGYPCASYDEFQESGCFPCPAKGCPKMGHFADQYPGKTNAVEQTFFLNTGASDNFTRWRYKVTVTLSGEKDPSGNINVALLGKNGNSAQYQVFKGTLKPDASYTNSIDVELNVGTIQKVTFLWKRSGISVSKPKMGASRITVQSGKDGTKYNFCSSDIVQENVEQTLSPC
B6: unnamed (protein)
chain: MTEPTVARPDIDPVLKMLLDTFPVTFTAADGVEVARARLRQLKTPPELLPELRIEERTVGYDGLTDIPVRVYWPPVVRDNLPVVVYYHGGGWSLGGLDTHDPVARAHAVGAQAIVVSVDYRLAPEHPYPAGIDDSWAALRWVGENAAELGGDPSRIAVAGDSAGGNISAVMAQLARDVGGPPLVFQLLWYPTTMADLSLPSFTENADAPILDRDVIDAFLAWYVPGLDISDHTMLPTTLAPGNADLSGLPPAFIGTAEHDPLRDDGACYAELLTAAGVSVELSNEPTMVHGYVNFALVVPAAAEATGRGLAALKRALHA

In general, Km refers to the substrate concentration at which the rate is half of its maximum. By kcat is commonly meant the number of substrate molecules converted per active site and unit of time at saturation. In general, kcat/Km refers to the second-order rate constant that governs catalysis at low substrate concentration.

Substrate in the first series: p-NP-C4
Conditions: pH 7; 25 °C.
Turning to B1, the Km was determined as 0.75 mM, the kcat amounted to 50 s⁻¹ and the kcat/Km worked out at 66700 M⁻¹ s⁻¹.

Consider B2, for which the Km was determined as 1 mM, the kcat worked out at 190 s⁻¹ and the kcat/Km was found to be 190000 M⁻¹ s⁻¹.

With B3, the Km came to 2.5 mM, the catalytic constant (kcat) came out at 580 s⁻¹ and the kcat/Km came out at 232000 M⁻¹ s⁻¹.

For the protein B4, the Km turned out to be 2.1 mM, the kcat amounted to 420 s⁻¹ and the kcat/Km is 200000 M⁻¹ s⁻¹.

As for B5, the Km was 1 mM, the kcat came out at 50 s⁻¹ and the kcat/Km amounted to 50000 M⁻¹ s⁻¹.

B6: the Km was 0.05 mM, the kcat is 185 s⁻¹ and the specificity constant (kcat/Km) was 3.7e+06 M⁻¹ s⁻¹.

Substrate in a further series: triacetin
Particulars: pH 7; 25 °C.
On to B1, for which the Km stood at 110 mM, the kcat worked out at 120 s⁻¹ and the kcat/Km stood at 1090 M⁻¹ s⁻¹.

Consider B4, for which the Km was found to be 210 mM, the kcat was found to be 10 s⁻¹ and the kcat/Km turned out to be 47.6 M⁻¹ s⁻¹.

In the case of B5, the Michaelis-Menten constant (Km) stood at 120 mM, the kcat came to 555 s⁻¹ and the specificity constant (kcat/Km) is 4630 M⁻¹ s⁻¹.

Substrate in another series: tributyrin
Particulars: pH 7; 25 °C.
B1: the Km came to 0.4 mM, the kcat is 100 s⁻¹ and the kcat/Km is 250000 M⁻¹ s⁻¹.

Regarding B2, the Km stood at 0.4 mM, the catalytic constant (kcat) was found to be 18 s⁻¹ and the kcat/Km was 45000 M⁻¹ s⁻¹.

Turning to B3, the Km worked out at 0.5 mM, the kcat stood at 2250 s⁻¹ and the kcat/Km came out at 4.5e+06 M⁻¹ s⁻¹.

Consider B4, for which the Km was 0.45 mM, the kcat was 1080 s⁻¹ and the catalytic efficiency (kcat/Km) amounted to 2.4e+06 M⁻¹ s⁻¹.

For the protein B5, the Michaelis constant (Km) is 0.45 mM, the kcat turned out to be 1500 s⁻¹ and the kcat/Km was 3.33e+06 M⁻¹ s⁻¹.

Substrate in another series: tripropionin
Particulars: pH 7; 25 °C.
For B1, the Km was 12 mM, the kcat was found to be 150 s⁻¹ and the specificity constant (kcat/Km) was 12500 M⁻¹ s⁻¹.

With B2, the Km worked out at 15 mM, the kcat came out at 7 s⁻¹ and the kcat/Km is 467 M⁻¹ s⁻¹.

Consider B3, for which the Km is 14 mM, the kcat was found to be 225 s⁻¹ and the kcat/Km was found to be 16100 M⁻¹ s⁻¹.

On to B4, for which the Km is 18 mM, the catalytic constant (kcat) was determined as 200 s⁻¹ and the kcat/Km came to 11100 M⁻¹ s⁻¹.

For B5, the Km worked out at 10.5 mM, the kcat worked out at 750 s⁻¹ and the kcat/Km is 71400 M⁻¹ s⁻¹.

Substrate in a further series: vinyl acetate
Particulars: pH 7; 25 °C.
As to B1, the Km was determined as 280 mM, the kcat was determined as 100 s⁻¹ and the kcat/Km was found to be 357 M⁻¹ s⁻¹.

Take B2: the Km was found to be 170 mM, the turnover number (kcat) is 140 s⁻¹ and the kcat/Km is 824 M⁻¹ s⁻¹.

Consider B3, for which the Km is 280 mM, the kcat amounted to 455 s⁻¹ and the kcat/Km was 1630 M⁻¹ s⁻¹.

On to B4, for which the Km came out at 120 mM, the kcat came to 950 s⁻¹ and the kcat/Km worked out at 7920 M⁻¹ s⁻¹.

For the protein B5, the Michaelis-Menten constant (Km) stood at 295 mM, the kcat came out at 70 s⁻¹ and the kcat/Km was 237 M⁻¹ s⁻¹.

Substrate in the next series: vinyl butyrate
Conditions: pH 7; 25 °C.
Consider B1, for which the Km was 40 mM, the turnover number (kcat) amounted to 635 s⁻¹ and the specificity constant (kcat/Km) was found to be 15900 M⁻¹ s⁻¹.

As for B2, the Km worked out at 11 mM, the catalytic constant (kcat) is 210 s⁻¹ and the kcat/Km is 19100 M⁻¹ s⁻¹.

With B3, the Km is 20 mM, the kcat stood at 2600 s⁻¹ and the kcat/Km was 130000 M⁻¹ s⁻¹.

On to B4, for which the Km is 15 mM, the kcat was 5390 s⁻¹ and the kcat/Km worked out at 359000 M⁻¹ s⁻¹.

As to B5, the Km is 20 mM, the kcat was found to be 200 s⁻¹ and the catalytic efficiency (kcat/Km) worked out at 10000 M⁻¹ s⁻¹.

Substrate in a further series: vinyl laurate
Particulars: pH 7; 25 °C.
As to B1, the Km is 5 mM, the kcat came out at 145 s⁻¹ and the kcat/Km came to 29000 M⁻¹ s⁻¹.

Consider B2, for which the Km worked out at 3 mM, the kcat was 31 s⁻¹ and the kcat/Km came to 10300 M⁻¹ s⁻¹.

B3: the Michaelis-Menten constant (Km) is 4 mM, the kcat came to 12000 s⁻¹ and the kcat/Km turned out to be 3e+06 M⁻¹ s⁻¹.

Consider B4, for which the Km is 2 mM, the kcat was 5400 s⁻¹ and the kcat/Km came out at 2.7e+06 M⁻¹ s⁻¹.

On to B5, for which the Km worked out at 1.25 mM, the kcat was 125 s⁻¹ and the kcat/Km amounted to 100000 M⁻¹ s⁻¹.

Substrate in a further series: vinyl propionate
Conditions: pH 7; 25 °C.
Turning to B1, the Km turned out to be 75 mM, the kcat stood at 1940 s⁻¹ and the kcat/Km was found to be 25800 M⁻¹ s⁻¹.

For the protein B2, the Km was 70 mM, the kcat stood at 105 s⁻¹ and the kcat/Km worked out at 1500 M⁻¹ s⁻¹.

As to B3, the Km turned out to be 100 mM, the kcat was 1950 s⁻¹ and the kcat/Km came out at 19500 M⁻¹ s⁻¹.

Regarding B4, the Km turned out to be 35 mM, the kcat was determined as 3680 s⁻¹ and the kcat/Km is 105000 M⁻¹ s⁻¹.

Take B5: the Michaelis-Menten constant (Km) was determined as 50 mM, the kcat was 270 s⁻¹ and the kcat/Km came out at 5400 M⁻¹ s⁻¹.
